Data reported in US20210230599, “STEM-LOOP COMPOSITIONS AND METHODS FOR INHIBITING INTERLEUKIN-8” (VITRISA THERAPEUTICS, INC., published 2021).

Experiments:
[1] = target: T1, Interleukin-8 (IL8, CXCL8), C-terminal His-tagged (Homo sapiens, UniProt P10145 SEQ:1-72); test: TR-FRET, 5 nM IL8, protein-limited; bead flow 18 nM; settings: tags: C-terminal 6xHis (Sino Biological); label: Alexa Fluor 647
Method: (§1) Aptamers were synthesized and labeled with ALEXA FLUOR® 647, and binding to IL8 was quantified by Time-Resolved Fluorescence Resonance Energy Transfer (TR-FRET). Briefly, 2-fold dilutions of thermally equilibrated aptamers were made in TR-FRET Buffer (50 mM MOPS, pH 7.4, 125 mM NaCl, 5 mM KCl, 50 μM CHAPS, 0.1 mg/mL BSA, 1 mM CaCl₂ and 1 mM MgCl₂). […] of aptamer or control solution was added to 10 μL of 15 nM C-His-tagged-IL8 (Sino Biological) in a black wall half-area plate (Corning). In the same plate, 10 μl of aptamer solution was added to 10 μl of TR-FRET buffer alone to use for background subtraction. 10 μl of 15 nM anti-His-Eu (Perkin Elmer) was added to each well, the plate was covered with a plate seal and subsequently incubated in the dark for 1 hour at room temperature. The plate was read on a Biotek CYTATION™ 5 plate reader. Samples were excited at 330 nm and fluorescent values were collected at 665 nm. […] Apparent Kd values obtained for the fits are calculated as the concentration of half-maximal binding and shown in Table 10, and fit curves as FIG. 6. […] It is also possible that differences may arise due to TR-FRET being a homogenous solution binding assay, while bead binding has immobilized ligand and is non-homogenous, so bound aptamers may dissociate during analysis resulting in higher calculated Kd values.

[2] = target: T1, Interleukin-8 (IL8, CXCL8), C-terminal …; test: TR-FRET; bead flow 7 nM; settings: tags: C-terminal 6xHis (Sino Biological); label: Alexa Fluor 647
Method: as §1

[3] = target: T1, Interleukin-8 (IL8, CXCL8), C-terminal …; test: TR-FRET; GAG-site binder, displaced by heparan sulfate IC50 9 uM; settings: tags: C-terminal 6xHis (Sino Biological); label: Alexa Fluor 647
From the text: Differences between these TR-FRET values (Table 10) and those from the bead binding assay (Table 9) may be due to a different limiting concentration of IL8. […] It is also possible that differences may arise due to TR-FRET being a homogenous solution binding assay, while bead binding has immobilized ligand and is non-homogenous, so bound aptamers may dissociate during analysis resulting in higher calculated Kd values.
Aptamer 1 (C6NH₂-[…]-idT, where C and U are 2′F, A and G are 2′OH; C6NH₂ is a hexylamino linker; and idT is a 3′ inverted deoxythymidine residue (SEQ ID NO: 75 with modifications)) was used as a positive control for an aptamer that binds to the GAG binding site. Aptamers 1, 3, 6, 8 and 11 were labeled with ALEXAFLUOR® 647 as described in Example 3. […] Briefly, 2-fold dilutions of heparan sulfate (Sigma Aldrich) were made in TR-FRET Buffer (50 mM MOPS, pH 7.4, 125 mM NaCl, 5 mM KCl, 50 μM CHAPS, 0.1 mg/mL BSA, 1 mM CaCl₂ and 1 mM MgCl₂). […] heparan sulfate or control solution were added to […] a mixture of 10 nM C-His-tagged-IL8 (Sino Biological), 5 nM anti-His-Eu (Perkin Elmer), and 30 nM AlexaFluor® 647-labeled aptamer in TR-FRET in a black low volume 384-well plate (Greiner). The plate was covered with a plate seal and subsequently incubated in the dark for 1 hour at room temperature. The plate was read on a Biotek CYTATION™ 5 plate reader. […]

[4] = target: T1, Interleukin-8 (IL8, CXCL8), C-terminal …; test: TR-FRET; bead flow 16 nM; settings: tags: C-terminal 6xHis (Sino Biological); label: Alexa Fluor 647; stem-loop (Aptamer 3 family)
Method: as §1

[5] = target: T1, Interleukin-8 (IL8, CXCL8), C-terminal …; test: TR-FRET, 500 pM IL8; Table 10 gives 2 nM; bead flow 13 nM; settings: tags: C-terminal 6xHis (Sino Biological); label: Alexa Fluor 647; stem-loop (3 stems, 4 loops)
Method: Under these assay conditions, the ability to measure the affinity accurately is limited by the input IL8 protein concentration, and the apparent Kd under these protein-limiting conditions was determined to be 8 nM.

[6] = target: T1, Interleukin-8 (IL8, CXCL8), C-terminal …; test: competition; competition TR-FRET; S2 disrupted; settings: tags: C-terminal 6xHis (Sino Biological)
Method: (§2) To better understand the sequence requirements and to confirm the stem structures of members of the Aptamer 3 family as determined from sequence covariation analysis from both the primary and secondary (degenerate) selections, a series of variants which included mutations and deletions to the predicted stems were synthesized and screened (Table 24). Activity of each of these variants were tested using a time resolved competition TR-FRET assay in which the labeled parent Aptamer 3 was competed with increasing concentrations of unlabeled variants for binding to IL8 (FIG. 14). Briefly, 2-fold dilutions of thermally equilibrated aptamers were made in TR-FRET Buffer (50 mM MOPS, pH 7.4, 125 mM NaCl, 5 mM KCl, 50 μM CHAPS, 0.1 mg/mL BSA, 1 mM CaCl₂, and 1 mM MgCl₂). 5 μL of aptamer or control solution was added to 5 μl mix of 10 nM C-terminal His-tagged-IL8, 60 nM ALEXA FLUOR® 647-labeled Aptamer, and 5 nM anti-His-Eu (Perkin Elmer) in a black wall low volume 384 well plate (Greiner). For control, 5 μl of 1000-fold excess of unlabeled parent aptamer or 5 μl TR-FRET buffer alone was added to the mix of ALEXA FLUOR® 647-labeled aptamer, His-IL8, and anti-His-Eu. The plate was covered with a plate seal and subsequently incubated in the dark for 1 hour at room temperature. The plate was read on a Biotek CYTATION™ 5 plate reader. […]

[7] = target: T1, Interleukin-8 (IL8, CXCL8), C-terminal …; test: competition; competition TR-FRET; settings: tags: C-terminal 6xHis (Sino Biological); stem-loop
[8] = target: T1, Interleukin-8 (IL8, CXCL8), C-terminal …; test: flow; bead-immobilized IL8, 37 C; settings: tags: C-terminal 6xHis (Sino Biological); label: Alexa Fluor 647
Method: (§3) Chemically synthesized aptamers (Table 8) were labeled with ALEXA FLUOR® 647 and were used to test binding to IL8 in a bead based assay using flow cytometry. In brief, fluorescently labeled aptamers were heated at 90° C. for 3 minutes in SB1T and were allowed to cool at room temperature for 5 minutes, after which they were incubated with c-his-IL8, immobilized on DYNABEADS® His-Tag Isolation and Pulldown beads in SB1T buffer containing 0.1% BSA, 1 μg/μl ssDNA and 1 μg/μl heparin sulphate at two different aptamer concentrations: 10 nM and 100 nM. Following incubation for 30 minutes at 37° C., the beads were washed three times with SB1T, re-suspended in SB1T buffer and analyzed by flow cytometry. […] Negligible or complete lack of binding seen in cases of some aptamers (e.g., Aptamers 4, 9, 10, and 16) could be due to the removal of the constant regions. No binding was observed when similar experiments were performed in the absence of protein (data not shown).
Flow cytometry was used to measure the apparent binding affinity for Aptamer 2, Aptamer 3, Aptamer 5, Aptamer 6, Aptamer 8, Aptamer 11, Aptamer 12, Aptamer 13, Aptamer 14, Aptamer 20, Aptamer 22, Aptamer 23, and Aptamer 25 using bead immobilized c-his-IL8. […] Following incubation for 30 minutes at 37° C., the beads were washed and fluorescence was measured by flow cytometry. […]

[9] = target: T1, Interleukin-8 (IL8, CXCL8), C-terminal …; test: TR-FRET, 5 nM IL8, protein-limited; bead flow 13 nM; settings: tags: C-terminal 6xHis (Sino Biological); label: Alexa Fluor 647
Method: as §1

[10] = target: T1, Interleukin-8 (IL8, CXCL8), C-terminal …; test: competition; competition TR-FRET; S3 mutant; settings: tags: C-terminal 6xHis (Sino Biological)
Method: as §2

[11] = target: T1, Interleukin-8 (IL8, CXCL8), C-terminal …; test: competition; competition TR-FRET; S3 extended; settings: tags: C-terminal 6xHis (Sino Biological)
Method: as §2

[12] = target: T1, Interleukin-8 (IL8, CXCL8), C-terminal …; test: TR-FRET, 1 mM Ca, 1 mM Mg, room temperature; settings: tags: C-terminal 6xHis (Sino Biological); label: Alexa Fluor 647
Method: as §1

[13] = target: T1, Interleukin-8 (IL8, CXCL8), C-terminal …; test: TR-FRET, 5 nM IL8, protein-limited; settings: tags: C-terminal 6xHis (Sino Biological); label: Alexa Fluor 647
[14] = target: T1, Interleukin-8 (IL8, CXCL8), C-terminal …; test: flow; appreciable binding, bead-immobilized IL8, 10 and 100 nM aptamer; settings: tags: C-terminal 6xHis (Sino Biological); label: Alexa Fluor 647
Method: as §3

[15] = target: T1, Interleukin-8 (IL8, CXCL8), C-terminal …; test: TR-FRET; bead flow 20 nM; settings: tags: C-terminal 6xHis (Sino Biological); label: Alexa Fluor 647
Method: as §1

Question: Which Kd [1] does the source give for UCAGGCUGAAAAGUGAGCUAUAAUGUCCUGAUUGAU (ssRNA, 2'-F G, 2'-OMe A/C/U, 5' C6NH2, 3' idT) [Aptamer 6] here?
Answer: Its Kd is 2 nM.

Question: With UCUGAAUCGGCUGAAACGGGAGCAUUAAUGUCCGGU (ssRNA, 2'-F G, 2'-OMe A/C/U, 5' C6NH2, 3' idT) [Aptamer 22] as the binder, how does the Kd [2] read?
Answer: The Kd was 15 nM.

Question: How did the Kd [3] turn out when GGGGGCUUAUCAUUCCAUUUAGUGUUAUGAUAACC (ssRNA, 2'-F C and U, 2'-OH A and G, 5' C6NH2, 3' idT) [Aptamer 1] was run?
Answer: The Kd was 3 nM.

Question: Which Kd [4] does the source give for UUGGCCACAGUAGAUUUCGGUGCGUGUGACUGGGCU (ssRNA, 2'-F G, 2'-OMe A/C/U, 5' C6NH2, 3' idT) [Aptamer 12] here?
Answer: The Kd was 12 nM.

Question: UGAUGACGGUAGAUUACGGGUAGAGUGACCGCAUCU (ssRNA, 2'-F G, 2'-OMe A/C/U, 5' C6NH2, 3' idT) [Aptamer 3] was tested. Which Kd [5] did it give?
Answer: The Kd was 0.214 nM.

Question: UGAUGACCCUAGAUUACGGGUAGAGUGACCGCAUCU (ssRNA, 2'-F G, 2'-OMe A/C/U, 5' C6NH2, 3' idT) [Aptamer 188] was tested. Which binding signal [6] did it give?
Answer: Its binding signal is > 10 fold worse than Aptamer 3.

Question: GCGACGGUAGAUUACGGGUAGAGUGACCGCGC (ssRNA, 2'-F G, 2'-OMe A/C/U, 5' C6NH2, 3' idT) [Aptamer 42] was tested. Which binding signal [7] did it give?
Answer: Its binding signal is ~1.4 fold worse than Aptamer 3.

Question: With UGACUGCGGUCGCAAGUUACGGAUUUGCCGCCCCGU (ssRNA, 2'-F G, 2'-OMe A/C/U, 5' C6NH2, 3' idT) [Aptamer 20] as the binder, how does the Kd [8] read?
Answer: Its Kd is 15 nM.

Question: How did the Kd [9] turn out when UCCGGUUGCUGAGAUGUGAGAUUAAUGUCCACCGUU (ssRNA, 2'-F G, 2'-OMe A/C/U, 5' C6NH2, 3' idT) [Aptamer 11] was run?
Answer: Its Kd is 2 nM.

Question: GGCGACGGUAGACUACGGGUAGAGUGACCGCGCC (ssRNA, 2'-F G, 2'-OMe A/C/U, 5' C6NH2, 3' idT) [Aptamer 89] was tested. Which binding signal [10] did it give?
Answer: The binding signal was > 10 fold worse than Aptamer 3.

Question: With GGCGACGGUAGAUCACGGGUAGGGUGACCGCGCC (ssRNA, 2'-F G, 2'-OMe A/C/U, 5' C6NH2, 3' idT) [Aptamer 90] as the binder, how does the binding signal [11] read?
Answer: Its binding signal is > 10 fold worse than Aptamer 3.

Question: How did the Kd [12] turn out when UGUCGCCCUACGUAAACCGCUAUUUGCGACUGCGGU (ssRNA, 2'-F G, 2'-OMe A/C/U, 5' C6NH2, 3' idT) [Aptamer 19] was run?
Answer: Its Kd is 4 nM.

Question: UUAUUGCGGCCCGAUUUACCGAAUUUGCCGUCCGGU (ssRNA, 2'-F G, 2'-OMe A/C/U, 5' C6NH2, 3' idT) [Aptamer 7] was tested. Which Kd [13] did it give?
Answer: Its Kd is 2 nM.

Question: Does UCAUGGGUUGCCAACCGGCCGUGUAUGUACGUACAU (ssRNA, 2'-F G, 2'-OMe A/C/U, 5' C6NH2, 3' idT) [Aptamer 25] bind [14]?
Answer: Result: binds

Question: Which Kd [15] does the source give for UCGUGAAGGGCGAUUCUGGUGCGUGUUCCCUCGCGU (ssRNA, 2'-F G, 2'-OMe A/C/U, 5' C6NH2, 3' idT) [Aptamer 5] here?
Answer: The Kd was 10 nM.
